Measurements as given in PMC2115109.
Values joined by “and” are separate entries in the source; they are usually repeats but may differ in a detail not shown here. Identical values can stand only once.

Columns and labels:
[1] = molecular target: F-actin (actin filaments) from rabbit skeletal muscle (rabbit) (UniProt P68135); experiment: co-sedimentation
[2] = molecular target: monomeric actin from rabbit skeletal muscle (rabbit) (UniProt P68135); experiment: pull-down

CT28N, 28-kD chymotryptic fragment from the NH2-terminal half of human plasma gelsolin (domain or fragment), sequence (P06396 151-406): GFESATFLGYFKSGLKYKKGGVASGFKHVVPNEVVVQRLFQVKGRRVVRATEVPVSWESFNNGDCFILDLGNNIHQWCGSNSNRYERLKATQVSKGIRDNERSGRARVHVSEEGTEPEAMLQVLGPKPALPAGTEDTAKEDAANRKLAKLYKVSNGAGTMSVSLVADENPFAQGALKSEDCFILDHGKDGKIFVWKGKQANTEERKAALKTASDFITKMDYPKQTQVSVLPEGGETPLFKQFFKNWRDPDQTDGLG
CT45N, 45-kD NH2-terminal half chymotryptic fragment of human plasma gelsolin (domain or fragment), sequence (P06396 1-406): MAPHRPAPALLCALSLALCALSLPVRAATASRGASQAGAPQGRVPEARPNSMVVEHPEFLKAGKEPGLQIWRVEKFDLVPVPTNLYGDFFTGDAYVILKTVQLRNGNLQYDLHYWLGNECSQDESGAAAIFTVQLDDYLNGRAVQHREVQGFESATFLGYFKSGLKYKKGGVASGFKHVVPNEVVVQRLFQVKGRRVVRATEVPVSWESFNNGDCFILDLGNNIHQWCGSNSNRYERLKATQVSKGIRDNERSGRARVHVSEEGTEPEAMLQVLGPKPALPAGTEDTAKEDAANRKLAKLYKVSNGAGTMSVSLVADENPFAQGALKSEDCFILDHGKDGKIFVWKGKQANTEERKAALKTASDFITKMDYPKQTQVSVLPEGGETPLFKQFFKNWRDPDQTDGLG

Substance	Ka [1]	Kd [1]	percent of input sedimented [1]	percent sedimented [1]	radioactivity on the beads [2]
CT28N, 28-kD chymotryptic fragment from the NH2-terminal half of human plasma gelsolin (domain or fragment)	5e+06 M⁻¹	200 nM and 280 nM	100%	100%	
CT45N, 45-kD NH2-terminal half chymotryptic fragment of human plasma gelsolin (domain or fragment)				67%	540 cpm
